Measured values reported in publication PMC9945957 (Proceedings of the National Academy of Sciences of the …, 2023).

B1: human hemoglobin, heme-loaded (holo-Hb) (complex)
chain 1: not shown
chain 2: not shown

Key:
[1] = molecular target: T1, Shr^H1H2 (Shr residues S26 to Q285, both HIDs) (Streptococcus pyogenes, UniProt Q99YA0 26-285); assay: SEC-MALS + other: SEC-SAXS
T1 sequence: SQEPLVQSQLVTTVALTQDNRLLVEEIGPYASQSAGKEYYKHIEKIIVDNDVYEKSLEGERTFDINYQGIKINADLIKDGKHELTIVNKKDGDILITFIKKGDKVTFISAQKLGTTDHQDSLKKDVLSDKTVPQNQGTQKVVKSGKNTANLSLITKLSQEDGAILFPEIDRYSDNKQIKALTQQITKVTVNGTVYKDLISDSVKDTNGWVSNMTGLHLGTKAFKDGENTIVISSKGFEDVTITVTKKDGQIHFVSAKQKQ

[2] = molecular target: B1; assay: NMR titration

In the case of B1, the “stoichiometry N” value [1] is reported as 2 Shr^H1H2 per Hb tetramer.

B2: Shr^H2 M238A (domain or fragment)
chain: NLSLITKLSQEDGAILFPEIDRYSDNKQIKALTQQITKVTVNGTVYKDLISDSVKDTNGWVSNATGLHLGTKAFKDGENTIVISSKGFEDVTITVTKKDGQIHFVSAKQKQ
B2: binds [2].
